# B1: Table S3 C row 136 (dsDNA)
# DNA 1: GAACTCAGTACAGGCCGGAAGTCGGGGTACGGGGCC
# DNA 2: GGCCCCGTACCCCGACTTCCGGCCTGTACTGAGTTC
# B2: Table S3 C row 189 (dsDNA)
# DNA 1: TCGCTGATGGCGTCATTTCCGTGAGTCATCTGAGGG
# DNA 2: CCCTCAGATGACTCACGGAAATGACGCCATCAGCGA
# B3: Table S3 C row 64 (dsDNA)
# DNA 1: CTCCATCACTGTCGGAGGAAGTGGCATGCAGAGTGG
# DNA 2: CCACTCTGCATGCCACTTCCTCCGACAGTGATGGAG
# B4: Table S3 C row 18 (dsDNA)
# DNA 1: GCTGTGATTGCCTCACTTCCTGTGTCATGTGACGCT
# DNA 2: AGCGTCACATGACACAGGAAGTGAGGCAATCACAGC
# B5: Table S3 C row 168 (dsDNA)
# DNA 1: CAGAAGTCCCGACCCCATCCTGCCACGCCTCAGCGT
# DNA 2: ACGCTGAGGCGTGGCAGGATGGGGTCGGGACTTCTG
# B6: Table S3 C row 199 (dsDNA)
# DNA 1: TATCTGAGGAGTGGCAGGAAGTCTGGGGTGACTTTT
# DNA 2: AAAAGTCACCCCAGACTTCCTGCCACTCCTCAGATA
# B7: Table S3 C row 134 (dsDNA)
# DNA 1: GGGCAGAAGCACACAAGGAAGTGTTTCTGGGACAGA
# DNA 2: TCTGTCCCAGAAACACTTCCTTGTGTGCTTCTGCCC
# B8: Table S3 C row 51 (dsDNA)
# DNA 1: CACAGAGACACCAACAGGAAGAGACCAGAGAGCCAA
# DNA 2: TTGGCTCTCTGGTCTCTTCCTGTTGGTGTCTCTGTG
# B9: Table S3 C row 40 (dsDNA)
# DNA 1: GCACCTGTATTGCCGTTTCCGGTTCGCCTTCGGAGC
# DNA 2: GCTCCGAAGGCGAACCGGAAACGGCAATACAGGTGC
# B10: Table S3 C row 17 (dsDNA)
# DNA 1: CGCGGGTCATGTGACCGGAAGGGCTCCTCACGGACG
# DNA 2: CGTCCGTGAGGAGCCCTTCCGGTCACATGACCCGCG
# B11: Table S3 C row 42 (dsDNA)
# DNA 1: CTTTGGCAGCAAGAACATCCGTTCTCTGTTCTTTGC
# DNA 2: GCAAAGAACAGAGAACGGATGTTCTTGCTGCCAAAG
# B12: Table S3 C row 59 (dsDNA)
# DNA 1: TCTTACGGGCGGGGCCGGAAGAGGGAGTCGCGCTGC
# DNA 2: GCAGCGCGACTCCCTCTTCCGGCCCCGCCCGTAAGA
# B13: Table S3 C row 196 (dsDNA)
# DNA 1: GGGGTTCAGTGCCTCTTTCCGTTGGAGAGAACCTCT
# DNA 2: AGAGGTTCTCTCCAACGGAAAGAGGCACTGAACCCC
# B14: Table S3 C row 195 (dsDNA)
# DNA 1: TCGCGCTGGACGAAGCGGAAGAAGATGGCGCTCACC
# DNA 2: GGTGAGCGCCATCTTCTTCCGCTTCGTCCAGCGCGA
# B15: Table S3 C row 28 (dsDNA)
# DNA 1: GTTCCTAGTCCGCTCCGGAAATGCAACTGCGTACGG
# DNA 2: CCGTACGCAGTTGCATTTCCGGAGCGGACTAGGAAC
# B16: Table S3 C row 85 (dsDNA)
# DNA 1: CAGTCTGGCCCTCCACTTCCTGTTTTTATAAATGAA
# DNA 2: TTCATTTATAAAAACAGGAAGTGGAGGGCCAGACTG
# B17: Table S3 C row 34 (dsDNA)
# DNA 1: TTACGGCAAGCCTCACTTCCGGTCTGAACATTACGG
# DNA 2: CCGTAATGTTCAGACCGGAAGTGAGGCTTGCCGTAA
# B18: Table S3 C row 55 (dsDNA)
# DNA 1: GGGTTCATGTTTAGCAGGAAGTTGAAATGACTCACC
# DNA 2: GGTGAGTCATTTCAACTTCCTGCTAAACATGAACCC
# B19: Table S3 C row 159 (dsDNA)
# DNA 1: GTAAATACACTCATGTTTCCGCTCTCAGCCGTCAGT
# DNA 2: ACTGACGGCTGAGAGCGGAAACATGAGTGTATTTAC
# B20: Table S3 C row 155 (dsDNA)
# DNA 1: TCCAGGCACTATTTTCGGAAGCAGAGACACAGTGCC
# DNA 2: GGCACTGTGTCTCTGCTTCCGAAAATAGTGCCTGGA
# B21: Table S3 C row 19 (dsDNA)
# DNA 1: TCCAGACCTCCCCGTCTTCCGGCTGCCCTGAACGTC
# DNA 2: GACGTTCAGGGCAGCCGGAAGACGGGGAGGTCTGGA
# B22: Table S3 C row 60 (dsDNA)
# DNA 1: GGGGCTACTCGCAACAGGAAGTTCGGCCCTTAAAAA
# DNA 2: TTTTTAAGGGCCGAACTTCCTGTTGCGAGTAGCCCC
# B23: Table S3 C row 91 (dsDNA)
# DNA 1: CACATACTACTACAACTTCCGGCAGGCTCCGCGCCC
# DNA 2: GGGCGCGGAGCCTGCCGGAAGTTGTAGTAGTATGTG
# B24: Table S3 C row 2 (dsDNA)
# DNA 1: TGGACCTAGGGCAGACGGAAGTTTTGGGAGGGCCGG
# DNA 2: CCGGCCCTCCCAAAACTTCCGTCTGCCCTAGGTCCA
# B25: Table S3 C row 67 (dsDNA)
# DNA 1: AAAAAAAAAAAAAAAGTTCCGGCCGGGCTGCGCCTC
# DNA 2: GAGGCGCAGCCCGGCCGGAACTTTTTTTTTTTTTTT
# B26: Table S3 C row 183 (dsDNA)
# DNA 1: CGCCCCAATGTTCGGCGGAAGGGAGGGAGGGTCTCC
# DNA 2: GGAGACCCTCCCTCCCTTCCGCCGAACATTGGGGCG
# B27: Table S3 C row 45 (dsDNA)
# DNA 1: CCGCTGGGGCAGGAGTTTCCGGCGGACTCGGCTAGG
# DNA 2: CCTAGCCGAGTCCGCCGGAAACTCCTGCCCCAGCGG
# B28: Table S3 C row 63 (dsDNA)
# DNA 1: GCACTGAGGCTGACCCGGAAGTTTAAATTACGCTCC
# DNA 2: GGAGCGTAATTTAAACTTCCGGGTCAGCCTCAGTGC
# B29: Table S3 C row 38 (dsDNA)
# DNA 1: AGTGAAACATCAGAGCTTCCTGTTACATCACTCTGA
# DNA 2: TCAGAGTGATGTAACAGGAAGCTCTGATGTTTCACT
# B30: Table S3 C row 139 (dsDNA)
# DNA 1: TAAATGGAAAGCATACATCCTGTTTTTTTGCTGTAG
# DNA 2: CTACAGCAAAAAAACAGGATGTATGCTTTCCATTTA
# B31: Table S3 C row 88 (dsDNA)
# DNA 1: TCTCACGTAGACGCGCGGAAACACTAACGAGTTGAA
# DNA 2: TTCAACTCGTTAGTGTTTCCGCGCGTCTACGTGAGA
# B32: Table S3 C row 16 (dsDNA)
# DNA 1: GCTAGATGAAGCCCCTTTCCTGTTGCTGCCTACATT
# DNA 2: AATGTAGGCAGCAACAGGAAAGGGGCTTCATCTAGC
# B33: Table S3 C row 14 (dsDNA)
# DNA 1: TCCTGCCGACGTGTTCTTCCGGTGGCGGAGCGGCGG
# DNA 2: CCGCCGCTCCGCCACCGGAAGAACACGTCGGCAGGA
# B34: Table S3 C row 175 (dsDNA)
# DNA 1: CTGCGCGGCCCACCCCGGATGTCAGCCCCACGCGCC
# DNA 2: GGCGCGTGGGGCTGACATCCGGGGTGGGCCGCGCAG
# B35: Table S3 C row 30 (dsDNA)
# DNA 1: ACCGACCTGCCTCGCCGGAACTCCTCGCGCATCGCC
# DNA 2: GGCGATGCGCGAGGAGTTCCGGCGAGGCAGGTCGGT
# B36: Table S3 C row 171 (dsDNA)
# DNA 1: AGGAGACAAGCGCCACTTCCGGCAGCGAAGTCACTT
# DNA 2: AAGTGACTTCGCTGCCGGAAGTGGCGCTTGTCTCCT
# B37: Table S3 C row 149 (dsDNA)
# DNA 1: CTCAAGGAGGTGGGACTTCCTGCTAGGTGGGCCGTG
# DNA 2: CACGGCCCACCTAGCAGGAAGTCCCACCTCCTTGAG
# B38: Table S3 C row 80 (dsDNA)
# DNA 1: CAAAAGGGCTGCCAGTTTCCGCCCCTTCTAGCGAGC
# DNA 2: GCTCGCTAGAAGGGGCGGAAACTGGCAGCCCTTTTG
# B39: Table S3 C row 186 (dsDNA)
# DNA 1: GCTTTCTGGACTACACTTCCCAGAAGCCTCTAGGCC
# DNA 2: GGCCTAGAGGCTTCTGGGAAGTGTAGTCCAGAAAGC
# B40: Table S3 C row 109 (dsDNA)
# DNA 1: GCAGCACGCAGCAACCGGAAGTCAATGGACGAAGAC
# DNA 2: GTCTTCGTCCATTGACTTCCGGTTGCTGCGTGCTGC
# B41: Table S3 C row 115 (dsDNA)
# DNA 1: GCCACCAGAGGGCGCCGGAAGTCCTGACCCATTGTC
# DNA 2: GACAATGGGTCAGGACTTCCGGCGCCCTCTGGTGGC
# B42: Table S3 C row 78 (dsDNA)
# DNA 1: ATTCCAATGGCAGGCAGGAAATCTTGTAGTAGGTGA
# DNA 2: TCACCTACTACAAGATTTCCTGCCTGCCATTGGAAT
# B43: Table S3 C row 142 (dsDNA)
# DNA 1: GCCCCTGCCCCAGAGAGGAAGTTCGGCCTCATCGAG
# DNA 2: CTCGATGAGGCCGAACTTCCTCTCTGGGGCAGGGGC
# B44: Table S3 C row 68 (dsDNA)
# DNA 1: CCCTATTCGCAGAGGAGGAAGTGGAGGCTCTCCAGG
# DNA 2: CCTGGAGAGCCTCCACTTCCTCCTCTGCGAATAGGG
# B45: Table S3 C row 7 (dsDNA)
# DNA 1: ACCCCGACGCAGCCTGGGAAGTGTAGTCCTCTCTGC
# DNA 2: GCAGAGAGGACTACACTTCCCAGGCTGCGTCGGGGT
# Biological target: RUNX1 (Homo sapiens, UniProt Q01196)
# Assay: gcPBM; 2 nM RUNX1
# Details: tags: N-terminal GST (pDEST15), kept (PMC6008103); label: surface-attached array probe
# Chain of RUNX1 (Q01196 whole entry): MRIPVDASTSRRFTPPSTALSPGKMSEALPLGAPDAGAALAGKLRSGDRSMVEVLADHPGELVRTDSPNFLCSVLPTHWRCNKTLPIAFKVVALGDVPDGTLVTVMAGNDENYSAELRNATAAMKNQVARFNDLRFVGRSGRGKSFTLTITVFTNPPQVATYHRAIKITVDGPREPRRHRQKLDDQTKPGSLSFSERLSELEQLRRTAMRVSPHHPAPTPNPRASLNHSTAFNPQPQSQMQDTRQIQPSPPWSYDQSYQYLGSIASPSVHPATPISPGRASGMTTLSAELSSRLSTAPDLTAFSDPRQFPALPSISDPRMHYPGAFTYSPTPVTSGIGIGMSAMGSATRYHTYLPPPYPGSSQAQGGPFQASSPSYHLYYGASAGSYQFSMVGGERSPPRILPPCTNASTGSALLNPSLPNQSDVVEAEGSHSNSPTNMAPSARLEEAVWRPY
row,Binder,binding signal
1,B1,"841 PBM fluorescence, median of replicate spots"
2,B2,"823 PBM fluorescence, median of replicate spots"
3,B3,"818 PBM fluorescence, median of replicate spots"
4,B4,"805 PBM fluorescence, median of replicate spots"
5,B5,"810 PBM fluorescence, median of replicate spots"
6,B6,"815 PBM fluorescence, median of replicate spots"
7,B7,"813 PBM fluorescence, median of replicate spots"
8,B8,"807 PBM fluorescence, median of replicate spots"
9,B9,"799 PBM fluorescence, median of replicate spots"
10,B10,"798 PBM fluorescence, median of replicate spots"
11,B11,"821 PBM fluorescence, median of replicate spots"
12,B12,"793 PBM fluorescence, median of replicate spots"
13,B13,"810 PBM fluorescence, median of replicate spots"
14,B14,"794 PBM fluorescence, median of replicate spots"
15,B15,"793 PBM fluorescence, median of replicate spots"
16,B16,"810 PBM fluorescence, median of replicate spots"
17,B17,"808 PBM fluorescence, median of replicate spots"
18,B18,"803 PBM fluorescence, median of replicate spots"
19,B19,"801 PBM fluorescence, median of replicate spots"
20,B20,"791 PBM fluorescence, median of replicate spots"
21,B21,"812 PBM fluorescence, median of replicate spots"
22,B22,"839 PBM fluorescence, median of replicate spots"
23,B23,"795 PBM fluorescence, median of replicate spots"

row,Binder,binding signal
1,B24,"810 PBM fluorescence, median of replicate spots"
2,B25,"810 PBM fluorescence, median of replicate spots"
3,B26,"835 PBM fluorescence, median of replicate spots"
4,B27,"802 PBM fluorescence, median of replicate spots"
5,B28,"812 PBM fluorescence, median of replicate spots"
6,B29,"789 PBM fluorescence, median of replicate spots"
7,B30,"802 PBM fluorescence, median of replicate spots"
8,B31,"840 PBM fluorescence, median of replicate spots"
9,B32,"818 PBM fluorescence, median of replicate spots"
10,B33,"791 PBM fluorescence, median of replicate spots"
11,B34,"823 PBM fluorescence, median of replicate spots"
12,B35,"816 PBM fluorescence, median of replicate spots"
13,B36,"814 PBM fluorescence, median of replicate spots"
14,B37,"829 PBM fluorescence, median of replicate spots"
15,B38,"794 PBM fluorescence, median of replicate spots"
16,B39,"826 PBM fluorescence, median of replicate spots"
17,B40,"792 PBM fluorescence, median of replicate spots"
18,B41,"838 PBM fluorescence, median of replicate spots"
19,B42,"802 PBM fluorescence, median of replicate spots"
20,B43,"827 PBM fluorescence, median of replicate spots"
21,B44,"829 PBM fluorescence, median of replicate spots"
22,B45,"822 PBM fluorescence, median of replicate spots"
